Data from the supplement of paper PMC10567573.
± gives the standard deviation.

Experiment: protein stability index of a GFP-peptide fusion (GPS, HEK-293T) (PSI 1-6); higher = more stable
[1] = treatment: DMSO, c terminus: a fixed tail appended
[2] = treatment: MLN4924 1 uM, 8 h, c terminus: a fixed tail appended
[3] = treatment: DMSO, c terminus: native
[4] = treatment: MLN4924 1 uM, 8 h, c terminus: native
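Note: 24-mer peptide tiles fused after GFP, lentivirally expressed, FACS-sorted into six equal bins by GFP/DsRed ratio, decoded by Illumina sequencing, PSI is the read-weighted mean bin number.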

Sequence | protein stability index [1] | protein stability index [2] | protein stability index [3] | protein stability index [4]
NGSCENSDASSHANAAKHTQDSAR [EHMT1] | 5.27 ± 0.37 | 5.3 ± 0.2 | – | –
RGGSDPETTGIQIWSEVFTVEKPG [ATL3] | 4 ± 0.59 | 4.09 ± 0.28 | – | –
RAKVQPQARKKEMEMRQLQRGPA [CPN1] | – | – | 3.26 ± 0.43 | 3.11 ± 0.18
KYSLLKLTALLEKYTPSNKHGFSW [DLC1] | 2.65 ± 0.42 | 2.6 ± 0.61 | – | –
VITYILLSGASPFLGETKQETLTN [DAPK3] | 2.75 ± 0.26 | 2.86 ± 0.4 | – | –
IFIARRSLLDELLEVDHIRTIYHM [SOAT1] | 2.8 ± 0.58 | 2.66 ± 0.75 | – | –
SQLSMKAGLENTVAETECRYALQL [KRT13] | 3.37 ± 0.2 | 3.35 ± 0.25 | – | –
STYRKRTPVMEGYVEVKEGKTWKQ [LOXL2] | – | 3.92 ± 0.2 | – | –
TYAVRKLDNTKFRSHEGETAYIRV [SRSF1] | 2.46 ± 0.39 | 2.38 ± 0.3 | – | –
HYWELDVDNSCDWALGVCNNSWIR [TRIM43] | 2.25 ± 0.21 | 2.2 ± 0.34 | – | –
MENLPGLASGPGKYMPHLCQDSSG | 4.05 ± 0.067 | 3.93 ± 0.12 | – | –
YQSGGRIRRPVNVPIDIFSEEIRF [KCNA3] | 2.49 ± 0.43 | 3.11 ± 0.37 | – | –
GEFRTGKTQICHTLAVTCQLPIDR [RAD51] | 2.73 ± 0.52 | 3.02 ± 0.29 | – | –
LEAGADQEHKTDEMHTALMEACMD [ANKRD17] | 5.52 ± 0.37 | 5.34 ± 0.28 | – | –
TAENERLQKKVEQLSRELSTLRNL [CEBPB] | 3.69 ± 0.2 | 3.95 ± 0.2 | – | –
RGIHNIQKRYHCKECGKVFSQSAG [ZSCAN9] | 2.58 ± 0.27 | 2.78 ± 0.24 | – | –
PYSTVDNPVYYGPSDFFIGAVIEV [EFHC1] | 2.8 ± 0.48 | 3.13 ± 0.53 | – | –
STVKTETISFGSVSPGGVKLEIST [EPB41L3] | 3.19 ± 0.58 | 3.06 ± 0.42 | – | –
VCQRMLNQGFLKVERYHNLCQKQV [FBXO28] | 2.18 ± 0.36 | 2.37 ± 0.27 | – | –
CGTKYPVEWAKFCCECGIRRMIL [ZC2HC1A] | – | – | 3.11 ± 0.39 | 3.53 ± 0.055
APAPAPEEWLDILGNGLLRKKTLV [FKBP8] | 3.19 ± 0.32 | 3.24 ± 0.27 | – | –
LVSLTSRNPDQRKESLCISITVSK [FBXO34] | 2.26 ± 0.1 | 2.47 ± 0.15 | – | –
SGTTLISVIVLDINDNAPTFQSSV [PCDHGC5] | 2.96 ± 0.28 | 2.64 ± 0.63 | – | –
PVFLHSQMLWELVLLGEPLVVMAP [DENND6A] | 2.81 ± 0.63 | 2.98 ± 0.69 | – | –
FEFRPELVNDDDEEADDTRYTQGT [ZC3H15] | 5.44 ± 0.25 | 5.28 ± 0.2 | – | –
VNAVRKLLIEGRSVNEHTEEGESL [ANKRD17] | 4.73 ± 0.24 | 4.79 ± 0.35 | – | –

Sequence | protein stability index [1] | protein stability index [2] | protein stability index [3] | protein stability index [4]
MWPPDPDPDPDPEPAGGSRPGPAV [CMTM3] | 5.02 ± 0.062 | 5.124 ± 0.016 | – | –
NYMKILLKVGGILVMPIEDQLTQI [PCMTD1] | 3.08 ± 0.75 | 2.88 ± 0.8 | – | –
PLMQGPRTRPRKPIRCGEVLFAVG [KLHL20] | 2.23 ± 0.33 | 1.92 ± 0.5 | – | –
PAPTATVPAPQPPVTKPLFPSAGQ [ZNF207] | 4.82 ± 0.39 | 4.8 ± 0.18 | – | –
SLYRDIRDIQDENQLLVADVKRLG [STX11] | 3.67 ± 0.33 | 3.58 ± 0.22 | – | –
NHLQTHDPNKMAFGCEECGKKYNT [PLAGL1] | 4.14 ± 0.16 | 4.77 ± 0.27 | – | –
TLSGTCLLIANKRQSYDISIVAQV [CARM1] | 2.38 ± 0.69 | 2.68 ± 1.5 | – | –
LQSTYATPVDMWSVGCIFAEMFRR [CDK4] | 2.32 ± 0.42 | 2.37 ± 0.41 | – | –
LEAEIATYRRLLEDGEDFNLGDAL [KRT18] | 4.41 ± 0.15 | 4.53 ± 0.25 | – | –
GAYSSASSFSRPLGYPYVNSVSSH [DLX1] | 3.1 ± 0.15 | 3.12 ± 0.25 | – | –
VQLQRIPLSAVYRICLGKFTFPGM [TPRG1] | 2.65 ± 0.69 | 2.21 ± 0.43 | – | –
RVDQDKDKDCSLDCAGSPQKPLCA [SMOC2] | 5.39 ± 0.34 | 5.31 ± 0.32 | – | –
RRGWRPSSREDSLEAGLPLQVRGY [CHGA] | 3.42 ± 0.47 | 3.8 ± 0.27 | – | –
RAWSQCGGGGLRAWSQRSAAGRVC [CPOX] | 2.71 ± 0.077 | 2.88 ± 0.37 | – | –
RFNQAILVSRHDPASRRRVVEEVR [LPCAT4] | 3.62 ± 0.25 | 3.59 ± 0.29 | – | –
AAPLPERNSLSAIFNNVMTLCAML [SLC29A1] | 2.57 ± 0.14 | 2.57 ± 0.31 | – | –
MELLCHEVDPVRRAVRDRNLLRDD [CCND2] | 4.28 ± 0.34 | 4.5 ± 0.12 | – | –
QCLVEGCTEKFKTSRDRKDHMVRM [ZNF511] | 3.57 ± 0.27 | 3.95 ± 0.25 | – | –
ATLCLEFLLQNDANPSIRDKEGYN [ANKRD44] | 2.61 ± 0.26 | 2.73 ± 0.074 | – | –
SSCHFARDSSFLISGGFDRTVAIW [WDR88] | 2.42 ± 0.45 | 2.51 ± 0.55 | – | –
LALGVSLLCNAITGITLLRVKFKS [PTGFR] | 2.88 ± 0.48 | 2.73 ± 0.37 | – | –
QRDGSKSEDELDQASTPTDVRDID [CCND2] | 5.62 ± 0.16 | 5.62 ± 0.14 | – | –
GSQLEDQALRGLEGYTWRVAQLED [ZSWIM9] | 3.98 ± 0.55 | 4.25 ± 0.2 | – | –
RESPSFKLEPMETERSPGPRLQEL [ZNF263] | 4.42 ± 0.14 | 4.51 ± 0.2 | – | –
NVPRICGVCGDRATGFHFNAMTCE [VDR] | 2.83 ± 0.39 | 2.73 ± 0.2 | – | –
ETYKMEFMYSGVENKQVVIIHHMR [INTS4] | 2.72 ± 0.56 | 2.46 ± 0.47 | – | –
